# Results as given in article PMC12448032.
# Target: PD-L1 (UniProt Q9EP73)
# Sequence of UniProt Q9EP73 (Q9EP73 19-290): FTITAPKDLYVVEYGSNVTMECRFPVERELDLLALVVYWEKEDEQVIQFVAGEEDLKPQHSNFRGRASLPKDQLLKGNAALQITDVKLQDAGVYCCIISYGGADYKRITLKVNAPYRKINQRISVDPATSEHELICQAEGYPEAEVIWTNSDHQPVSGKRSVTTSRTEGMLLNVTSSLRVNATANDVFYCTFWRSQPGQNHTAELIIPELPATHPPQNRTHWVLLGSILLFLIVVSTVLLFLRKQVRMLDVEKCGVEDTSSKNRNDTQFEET
substance,measurement,value
"programmed cell death-1 (PD1), mouse, overexpressed in 293 T cells (from UniProt Q02242 25-288) (receptor)","uptake by K7M2 cells of BI@PCM NPs (PD1-high membrane) compared to B@CM NPs (PD1-low membrane), flow cytometry, 4 h",2.1 fold
